Reference: paper PMC12233901, “Resolving the APN controversy in PEDV infection: Comparative kinetic characterization through single-virus tracking” (PLOS Pathogens, 2025)

T1: porcine aminopeptidase N (pAPN) fused with a hFc tag (porcine, UniProt P15145)
T1 construct: also called porcine APN; source: HEK293T cell expression system, expressed and purified
T1 sequence: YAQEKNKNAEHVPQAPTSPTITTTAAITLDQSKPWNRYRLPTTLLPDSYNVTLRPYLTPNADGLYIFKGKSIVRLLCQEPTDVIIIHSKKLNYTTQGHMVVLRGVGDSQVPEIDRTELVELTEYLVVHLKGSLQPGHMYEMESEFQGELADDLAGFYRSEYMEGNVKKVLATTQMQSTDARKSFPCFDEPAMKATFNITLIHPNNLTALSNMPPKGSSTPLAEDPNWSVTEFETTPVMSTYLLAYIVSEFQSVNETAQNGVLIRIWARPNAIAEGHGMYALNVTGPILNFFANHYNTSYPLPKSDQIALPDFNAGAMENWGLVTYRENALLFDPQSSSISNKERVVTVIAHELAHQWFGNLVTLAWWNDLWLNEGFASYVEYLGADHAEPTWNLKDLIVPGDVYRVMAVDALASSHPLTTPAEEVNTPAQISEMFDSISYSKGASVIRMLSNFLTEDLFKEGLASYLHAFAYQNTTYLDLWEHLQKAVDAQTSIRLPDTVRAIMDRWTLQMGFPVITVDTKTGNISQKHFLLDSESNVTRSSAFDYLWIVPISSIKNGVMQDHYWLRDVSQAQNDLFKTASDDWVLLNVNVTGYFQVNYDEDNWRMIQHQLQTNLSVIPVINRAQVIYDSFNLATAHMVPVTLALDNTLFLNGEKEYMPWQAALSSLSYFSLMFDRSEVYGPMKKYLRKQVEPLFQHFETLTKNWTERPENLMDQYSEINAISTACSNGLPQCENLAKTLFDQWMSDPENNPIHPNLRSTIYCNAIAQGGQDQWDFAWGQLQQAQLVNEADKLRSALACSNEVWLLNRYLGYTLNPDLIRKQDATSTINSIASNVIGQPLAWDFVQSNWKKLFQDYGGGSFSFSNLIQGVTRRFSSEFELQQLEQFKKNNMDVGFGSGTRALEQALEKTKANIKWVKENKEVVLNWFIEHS

B1: TGEV S1 protein with a C-terminal His tag (domain or fragment)
chain: IGNHWNLIETFLLNYSSRLPPNSDAVLGDYFPTVQPWFNCIRNNSNDLYVTLENLKALYWDYAIENITSNHKQRLNVVVNGYPYSITVTTTRNFNSAEGAIICICKGSPPTTTTESSLTCNWGSECRLNHKFPICPSNSEANCGNMLYGLQWFADAVVAYLHGASYRISFENQWSGTVTLGDMRATTLETAGTLVDLWWFNPVYDVSYYRVNNKNGTTVVSNCTDQCASYVANVFTTQPGGFIPSDFSFNNWFLLTNSSTLVSGKLVTKQPLLVNCLWPVPSFEEAASTFCFEGAGFDQCNGAVLNNTVDVIRFNLNFTTNVQSGKGATVFSLNTTGGVTLEISCYNDTVSDSSFSSYGEMPFGVTDGPRYCYVLYNGTALKYLGTLPPVVKEIAISKWGHFYINGYNFFSTFPIDCISFNLTTGDSDVFWTIAYTSYTEALVQVENTAITKVTYCNSYVNNIKCSQLTANLNNGFYPVSSSEVGLVNKSVVLLPSFYTHTIVNITIGLGMKRSGYGQPIASTLSNITLPMQDDNTDVYCIRSDQFSVYVHSTCKSALWDNVFKRNCTDVLDATAVIKTGTCPFSFAKLNNYLTFNKFCLSLSPVGANCKFDVAARTRTNDQVVRSLYVIYEEGDNIVGVPSDNSGLHDLSVLHLDSCTDYNIYGRTGVGIIRQTNRTLLSGLYYTSLSGDLLGFKNVSDGVIYSVTPCDVIAQAAVIDGTIVGAITSINSELLGLTHWTTTPNFYYY
B2: PEDV S1 protein with a C-terminal His tag (domain or fragment)
chain: CQSTTNFRRFFSKFNVQAPAVVVLGGYLPSMNSSSWYCGTGIETASGVHGIFLSYIDSGQGFEIGISQEPFDPSGYQLYLHKATNGNTNAIARLRICQFPDNKTLGPTVNDVTTGRNCLFNKAIPAYMRDGKDIVVGITWDNDRVTVFADKIYHFYLKNDWSRVATRCYNRRSCAMQYVYTPTYYMLNVTSAGEDGIYYEPCTANCTGYAANVFATDSNGHIPEGFSFNNWFLLSNDSTLLHGKVVSNQPLLVNCLLAIPKIYGLGQFFSFNHTMDGVCNGAAVDRAPEALRFNINDTSVILAEGSIVLHTALGTNLSFVCSNSSDPHLAIFAIPLGATEVPYYCFLKVDTYNSTVYKFLAVLPPTVREIVITKYGDVYVNGFGYLHLGLLDAVTINFTGHGTDDDVSGFWTIASTNFVDALIEVQGTSIQRILYCDDPVSQLKCSQVAFDLDDGFYPISSRNLLSHEQPISFVTLPSFNDHSFVNITVSAAFGGLSSANLVASDTTINGFSSFCVDTRQFTITLFYNVTNSYGYVSKSQDSNCPFTLQSVNDYLSFSKFCVSTSLLAGACTIDLFGYPAFGSGVKLTSLYFQFTKGELITGTPKPLEGITDVSFMTLDVCTKYTIYGFKGEGIITLTNSSILAGVYYTSDSGQLLAFKNVTSGAVYSVTPCSFSEQAAYVNDDIVGVISSLSNSTFNNTRELPGFFYH

Target: T1, porcine aminopeptidase N (pAPN) fused …
Assay: SPR; […]; Biacore 8K, room temperature
Settings: both partners purified

| Binder | Kd |
| --- | --- |
| B1 | 0.392 µM |
| B2 | 47.5 µM |
